Target: murine GPRC5D (murine) (UniProt Q9JIL6)
Experiment: FACS, murine GPRC5D cells

Sequence of murine GPRC5D (murine) (Q9JIL6 whole entry): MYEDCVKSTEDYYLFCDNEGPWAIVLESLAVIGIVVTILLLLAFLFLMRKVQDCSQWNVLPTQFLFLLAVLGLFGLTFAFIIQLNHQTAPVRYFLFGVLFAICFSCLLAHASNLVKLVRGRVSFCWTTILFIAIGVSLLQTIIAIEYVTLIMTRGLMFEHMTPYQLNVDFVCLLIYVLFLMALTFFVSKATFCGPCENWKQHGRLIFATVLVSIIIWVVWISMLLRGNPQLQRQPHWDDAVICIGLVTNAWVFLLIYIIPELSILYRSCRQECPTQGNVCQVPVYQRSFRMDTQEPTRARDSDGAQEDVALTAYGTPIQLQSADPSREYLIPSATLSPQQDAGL

B1: GCDB72 (bispecific antibody, IgG4, V domains shown)
VH 1: EVQLVESGGGLVQPGGSLRLSCAASGFTFNTYAMNWVRQAPGKGLEWVARIRSKYNNYATYYAASVKGRFTISRDDSKNSLYLQMNSLKTEDTAVYYCARHGNFGNSYVSWFAYWGQGTLVTVSS
VL 1: QTVVTQEPSLTVSPGGTVTLTCRSSTGAVTTSNYANWVQQKPGQAPRGLIGGTNKRAPGTPARFSGSLLGGKAALTLSGVQPEDEAEYYCALWYSNLWVFGGGTKLTVL
VH 2: QVQLVQSGAEVKKPGASVKVSCKASGYSFTGYTMNWVRQAPGQGLEWMGLINPYNSDTNYAQKLQGRVTMTTDTSTSTAYMELRSLRSDDTAVYYCARVALRVALDYWGQGTLVTVSS
VL 2: DIQMTQSPSSLSASVGDRVTITCKASQNVATHVGWYQQKPGKAPKRLIYSASYRYSGVPSRFSGSGSGTEFTLTISNLQPEDFATYYCQQYNRYPYTFGQGTKLEIK
  MFI: 481

Reference: patent publication US20230227548A1
